According to US11053313B2, “Anti-CLDN-5 antibody, and drug containing said antibody” (OSAKA UNIVERSITY, priority 2017, dated 2021):
Positions count from the first letter of the chain named. Entries after “also recorded” stand apart in the source; their conditions may differ. One block for each molecule: values may come before it.

Assays:
mCLDN-5 = molecular target: T1, mCLDN-5 (Mus musculus, UniProt O54942); assay: Evaluation of CLDN specificity by FACS, mCLDN-5-expressing cells; format: binding; settings: hybridoma culture supernatant as primary antibody, FIG. 1B
T1 construct: expressed in transfected cells; host or cells: retrovirus-infected cells
T1 sequence (O54942 1-218): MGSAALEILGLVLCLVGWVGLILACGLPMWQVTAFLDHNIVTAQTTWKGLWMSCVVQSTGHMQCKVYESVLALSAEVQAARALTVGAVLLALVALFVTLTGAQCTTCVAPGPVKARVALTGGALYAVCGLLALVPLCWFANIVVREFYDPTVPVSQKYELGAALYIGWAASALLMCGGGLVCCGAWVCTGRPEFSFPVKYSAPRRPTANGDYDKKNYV

hCLDN-5 [1] = assay: Epitope analysis by hCLDN-5/mCLDN-5 chimeric CLDN (D68E, T75A, S151T, TM; FACS); format: binding, human; settings: antibody concentration 5 μg/mL, mutants D68E
[2] = test system: blood-brain barrier simulation system; assay: Material permeability of blood-brain barrier simulation system (monkey BBB kit); format: cell-based; settings: 12 hours after addition, FIG. 13
ZO-1 = ZO-1 localization by immunostaining in blood-brain barrier simulation system; format: cell-based; settings: monkey BBB kit, 12 hours after addition, FIG. 14
hCLDN-5 [3] = assay: Epitope analysis by hCLDN-5/hCLDN-1 chimeric CLDN (FACS), loop assignment; format: binding, human; settings: antibody concentration 5 μg/mL, hCLDN-5/hCLDN-1 chimeras
MDCKII/hCLDN-5 = assay: TEER of CLDN-5 compulsory expression system, MDCKII/hCLDN-5; format: cell-based, human; settings: MDCKII/hCLDN-5, FIG. 7B
CLDN-5 = CLDN-5 localization by immunostaining in blood-brain barrier simulation system; format: cell-based; settings: monkey BBB kit, 12 hours after addition, FIG. 14
5-5-1 = molecular target: T2, 5-5-1 (Homo sapiens, UniProt O00501, A162Q/K157R/L160F/Q156A/S151M/S155N/V152T); assay: Epitope analysis FACS, chimeric protein 5-5-1; format: binding; settings: antibody concentration 5 μg/mL; second extracellular loop substituted with hCLDN-1
T2 construct: expressed in transfected cells; host or cells: retrovirus-infected cells (pCX4pur)
T2 sequence (O00501 1-218 S151M/V152T/S155N/Q156A/K157R/L160F/A162Q): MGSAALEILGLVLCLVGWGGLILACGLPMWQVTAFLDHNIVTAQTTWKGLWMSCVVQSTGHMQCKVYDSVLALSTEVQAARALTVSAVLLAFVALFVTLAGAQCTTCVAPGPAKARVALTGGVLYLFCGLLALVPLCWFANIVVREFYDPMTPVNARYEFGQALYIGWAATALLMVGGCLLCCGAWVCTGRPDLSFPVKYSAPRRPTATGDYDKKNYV

1-1-5 = molecular target: T3, 1-1-5 (Homo sapiens, UniProt O00501, A34S/A72N/D37G/E76T/F35Y/G26A/H38D/H61Q/K48E/L36A/M29Q/M62I/Q31R/T33Y/T45A/T46M/T75S/V32I/V56S/V70L/W47Y/Y67F); assay: Epitope analysis FACS, chimeric protein 1-1-5; format: binding; settings: antibody concentration 5 μg/mL; first extracellular loop substituted with hCLDN-1
T3 construct: expressed in transfected cells; host or cells: retrovirus-infected cells (pCX4pur)
T3 sequence (O00501 1-218 G26A/M29Q/Q31R/V32I/T33Y/A34S/F35Y/L36A/D37G/H38D/T45A/T46M/W47Y/K48E/V56S/H61Q/M62I/Y67F/V70L/A72N/T75S/E76T): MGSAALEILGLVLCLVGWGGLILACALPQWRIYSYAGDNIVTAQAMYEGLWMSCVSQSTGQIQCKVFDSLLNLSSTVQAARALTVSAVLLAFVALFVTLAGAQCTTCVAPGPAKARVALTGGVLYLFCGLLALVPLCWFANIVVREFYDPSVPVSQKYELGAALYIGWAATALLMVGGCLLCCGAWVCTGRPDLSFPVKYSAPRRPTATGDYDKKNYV

1-5-5 = molecular target: T4, 1-5-5 (Homo sapiens, UniProt O00501, A34S/D37G/F35Y/G26A/H38D/K48E/L36A/M29Q/Q31R/T33Y/T45A/T46M/V32I/W47Y); assay: Epitope analysis FACS, chimeric protein 1-5-5; format: binding; settings: antibody concentration 5 μg/mL; N-terminal half of first extracellular loop substituted with hCLDN-1
T4 construct: expressed in transfected cells; host or cells: retrovirus-infected cells (pCX4pur)
T4 sequence (O00501 1-218 G26A/M29Q/Q31R/V32I/T33Y/A34S/F35Y/L36A/D37G/H38D/T45A/T46M/W47Y/K48E): T3 sequence (O00501 1-218 G26A/M29Q/Q31R/V32I/T33Y/A34S/F35Y/L36A/D37G/H38D/T45A/T46M/W47Y/K48E/V56S/H61Q/M62I/Y67F/V70L/A72N/T75S/E76T) with S56V, Q61H, I62M, F67Y, L70V, N72A, S75T, T76E

hCLDN-5 [4] = molecular target: T5, hCLDN-5 (Homo sapiens, UniProt O00501); assay: Western blotting operability, HT-1080/hCLDN-5 lysate; format: binding; settings: SDS-PAGE under reducing condition, antibody concentration 10 μg/mL, FIG. 5
T5 construct: expressed in transfected cells; host or cells: HT-1080 human fibrosarcoma cells infected with a pCX4pur-derived retrovirus (HT-1080/hCLDN-5)
T5 sequence (O00501 1-218): T2 sequence (O00501 1-218 S151M/V152T/S155N/Q156A/K157R/L160F/A162Q) with M151S, T152V, N155S, A156Q, R157K, F160L, Q162A
Experimental: FIG. 5 illustrates western blotting images showing the CLDN-5 primary structure recognizability of the anti-CLDN-5 antibodies obtained in Example 3-6). The primary antibodies used are shown at the top of the images, and the used cells are shown under the primary antibodies. The names of proteins represented by bands are shown on the left side of the images.
Cell lysates were prepared from HT-1080/mock and HT-1080/hCLDN-5 obtained in Example 1-2), and the lysates were separated by SDS-PAGE under a reducing condition. By using the antibodies (antibody concentration: 10 μg/mL) obtained in Example 1 as primary antibodies, western blotting was performed according to the conventional method. As primary antibodies, commercial monoclonal antibodies (4C3C2, Invitrogen, 35-2500) recognizing the C-terminal of CLDN-5 were used as positive control, and β actin antibodies (Sigma Aldrich, A1978) were used as loading control. The results are illustrated in FIG. 5.

B1: M48: mouse anti-CLDN-5 monoclonal antibody, IgG3/K; VH SEQ ID NO: 9, VL SEQ ID NO: 10; example of antibody E (antibody, V domains shown)
VH: QAYLQQSGAELVRPGASVKMSCKASGYTFTSYNMHWVKKTRRQGLEWIGAISPGNGNTSYNQKFKGKATLTVDKSSSTAYMQLSSLTSEDSAVYFCARDDGYYGALDYWGQGTSVTVSS
VL: DIVLTQSPATLSVTPGESVSLSCRASQGISTSIHWYQQKSNESPRLLIRYASQSISRIPSRFSGSGSGTDFTLTINGVESEDLSVYYCQQSYNLPLTFGSGTKLEI
modifications: M48 VH; M48 VL
binding capacity to mCLDN-5 (mCLDN-5): extremely low
portion of hCLDN-5 recognized (hCLDN-5 [1]): domain around the 151st amino acid from the N-terminal present in the second extracellular loop
4 kDa FITC-dextran permeability of the blood-brain barrier simulation system [2]: exhibited an activity of improving
localization properties of ZO-1 (ZO-1): did not change
extracellular loop of CLDN-5 recognized (hCLDN-5 [3]): second extracellular loop
reduction in TEER (MDCKII/hCLDN-5): greatly reducing TEER
localization properties of CLDN-5 in the intercellular space (CLDN-5): reduced
recognition of 5-5-1 (5-5-1): incapable of recognizing
recognition of 1-1-5 (1-1-5): capable of recognizing

B6: R3: rat anti-CLDN-5 monoclonal antibody, IgG2a/K; VH SEQ ID NO: 13, VL SEQ ID NO: 14; example of antibody G (antibody, V domains shown)
VH: EVQLVESGGGLVQPGRSLKLSCAASGFTFSDYYMAWVRQAPKKGLEWVASISYEGRNTYYGDSVKGRFTISRDNAKSTLYLQMKSLRSEDTATYYCTRHPRRYFDYWGQGVMVTVSS
VL: DIVMTQSPSSLAVSAGETVTMNCRSSQSLFSSGDQKKFLAWYQQKPGQSPKLLISLASTRESGVPDRFIGSGSGTDFTLTINNMQAEDLAIYYCQQHYDIPYTFGAGTKLEL
modifications: R3 VH; R3 VL
portion of hCLDN-5 recognized (hCLDN-5 [1]): domain around the 151st amino acid from the N-terminal present in the second extracellular loop
extracellular loop of CLDN-5 recognized (hCLDN-5 [3]): second extracellular loop
recognition of 5-5-1 (5-5-1): incapable of recognizing
recognition of 1-1-5 (1-1-5): capable of recognizing

Continued, in another order:

recognition of 1-5-5 (1-5-5): capable of recognizing
recognition of 5-5-1 (5-5-1): capable of recognizing
recognition of 1-1-5 (1-1-5): incapable of recognizing
B2: R2: rat anti-CLDN-5 monoclonal antibody, IgG2a/K; VH SEQ ID NO: 11, VL SEQ ID NO: 12; example of antibody F (antibody, V domains shown)
VH: QVQLKESGPGLVQPSQTLSLTCTVSGLSLIRNSVSWIRQPPGKGLEWMGVIWSNGGTEYNSTVKSRLSISRDTSKNQVFLKMNSLQTEDSAMFFCARTPDGYYPYFDYWGQGVMVTVSS
VL: B1 VL
modifications: R2 VH; R2 VL
portion of hCLDN-5 recognized (hCLDN-5 [1]): domain around the 68th amino acid from the N-terminal present in the first extracellular loop
extracellular loop of CLDN-5 recognized (hCLDN-5 [3]): first extracellular loop

recognition of 1-5-5 (1-5-5): incapable of recognizing
recognition of 5-5-1 (5-5-1): capable of recognizing
recognition of 1-1-5 (1-1-5): incapable of recognizing
B3: M11: mouse anti-CLDN-5 monoclonal antibody, IgG2b/K; VH SEQ ID NO: 3, VL SEQ ID NO: 4; example of antibody B (antibody, V domains shown)
VH: QVQLKQSGPGLVQPSQSLSITCTVSGFSLIRYGVHWVRQSPGKGLEWLGVKWSGGSTDYNGAFKSRLSISKDNSKSQVFFKMNSLQADDTAIYYCARGLDGYYVPDVWGTGTSVTVS
VL: DIVMTQSHKFMSTSVGDRVSITCKASQDVSTNVAWYQQKPGQSPTLLIYWASTRHTGVPDRFTGSGSGTDYTLTISSVQAEDLALYYCQQHYSTPLTFGAGTKLELRR
modifications: M11 VH; M11 VL
portion of hCLDN-5 recognized (hCLDN-5 [1]): domain around the 68th amino acid from the N-terminal present in the first extracellular loop
extracellular loop of CLDN-5 recognized (hCLDN-5 [3]): first extracellular loop

recognition of 5-5-1 (5-5-1): incapable of recognizing
recognition of 1-1-5 (1-1-5): capable of recognizing
B4: M23: mouse anti-CLDN-5 monoclonal antibody, IgG2b/K; VH SEQ ID NO: 5, VL SEQ ID NO: 6; example of antibody C (antibody, V domains shown)
VH: EVQLQQSGPVLVKPGPSVMISCKASGFTFTDYYMHWVKQSHGKSLEWIGLVYPYNGGTDYNQKFKGKATLTVDTSSSTAYMELNSLTSEDSAVYYCARCLYDGLYFYAMDYWGQGTSVTVSS
VL: DIVMSQSPSSLAVSAGEKVTMTCKSSQSLLNSRARKNYLAWYQQKAGQSPKLLMYWASTRESGVPDRFTASGSGTDFTLTISSVQAEDLAVFYCKQSYNLPWTFGGGTKLEIKR
modifications: M23 VH; M23 VL
portion of hCLDN-5 recognized (hCLDN-5 [1]): domain around the 151st amino acid from the N-terminal present in the second extracellular loop
extracellular loop of CLDN-5 recognized (hCLDN-5 [3]): second extracellular loop

recognition of linear peptide (western blotting operability) (hCLDN-5 [4]): weakly recognized
recognition of 5-5-1 (5-5-1): incapable of recognizing
recognition of 1-1-5 (1-1-5): capable of recognizing
B5: R14: rat anti-CLDN-5 monoclonal antibody, IgG2a/K; VH SEQ ID NO: 21, VL SEQ ID NO: 22; example of antibody K (antibody, V domains shown)
VH: QVTLKESGPGILQPSHTLSLTCSFSGFSLSTYGMGVSWIRQPSGKGLEWLASIWWNGRTYTNPSLMSRLTVSKDTSTNQAFLRVTSVETADTATYYCAHTPYDYSNLGWFTYWGQGTLVTVSS
VL: DILMTQTPSSQAVSAGEKVTVSCKSSQSLLYSGDQKSYLAWYQQKPGQSPKLLIYLASTRKSGVPDRFIGSGSGTDFTLTISSVQAEDLADYYCQQHYTYPLTFGSGTKLEI
modifications: R14 VH; R14 VL
portion of hCLDN-5 recognized (hCLDN-5 [1]): three-dimensional structure created by the transmembrane domain of hCLDN-5; also recorded: domain around the 151st amino acid from the N-terminal present in the second extracellular loop
extracellular loop of CLDN-5 recognized (hCLDN-5 [3]): second extracellular loop
